Source: the DeepSol protein solubility set

Test: soluble on expression in E. coli; label from the status in PepcDB or PDB records

| Sequence | soluble on expression in E. coli |
| --- | --- |
| MLLQANRGLGLSAHIIDHCNLILKFPEGTNSTWYNAQFKVFEALEFKYNVCEAVLLWEQYRNMTTVLTREYLDVRPDGWLDYAAMRIAQLGADKCYNRTLCEEHLNVILPAKPPFHPRQFHKCAVVGNSGDLLKTEFGEEIDSHDAVFRDNEAPVNEKYAKYVGVKRDFRLVVRGAARNMIKILNGSDNEVLIIKSVTHRDFNEMIKRIPNPVYLFQGIVLRRGAKGTGMKSIELALSMCDIVDIYGFTVDPGYTEWTRYFSTPRKGHNPLQGRAYYQLLECLGVQITC | not soluble |
| SMEEKLKKTNIIFVVGGPGSGKGTQCEKIVQKYGYTHLSTGDLLRSEVSSGSARGKKLSEIMEKGQLVPLETVLDMLRDAMVAKVNTSKGFLIDGYPREVQQGEEFERRIGQPTLLLYVDAGPETMTQRLLKRGETSGRVDDNEETIKKRLETYYKATEPVIAFYEKRGIVRKVNAEGSVDSVFSQVCTHLDALLN | soluble |
| MELAYVDAKKEEFDTLDKNHDGKVSLAEYEEHFHEASSKNEKSRTAYFAKVFEDFDEDFNMALSREELERVLAERFLVKPRENFPKLFFKFDVDKSGGLDLTEYMKFDAEFPFDQTDPVGGGPSKSNNHHDQMHTEVPQDADAAAIAAVLAQASPTLNKSPVGVAPPQTSPGLHPVAPGLFQTAVPIKKV | soluble |
| MSLGEKGQAEIIKSLTEQLDQVQSLDDDRIIRRYMEMINATLRTNYYQLDEHKQNKPWLSLKMKPSEIPEIPAPVPAFEIFVYAPDIEGVHLRGGKVARGGLRWSDRQEDFRTEILGLVKAQQVKNTVIVPVGAKGGFVCKKQYLYTTRDEIFAEGQRCYKRFIRALLDVTDNIIEGQVVPPKNVVRHDEDDPYLVVAADKGTATFSDLANSVSAEYQFWLGDAFASGGSNGYDHKAMGITAKGGWESVKRHFREMGIDCQTTDFTAIGIGDMAGDVFGNGMLLSKHIRLLAAFNHIHIFIDPTPDSASSWEERNRLFNLPRSSWEDYNPKLISKGGGVFSRKAKAITLTPEMQKMLNTKKTTLAPNELIKMILKMEVDLLWNGGIGTYVKSSIETHTDVGDRANDGLRVDGREVNAKIIGEGGNLGMTQRGRIEFALKGGRVNTDFVDNVGGVDCSDNEVNIKIFLNGLVANGDLTLKQRNQILESMKDEVGSIVIEDAYGQSESISVTEAQGEGHHHHHH | not soluble |
| MQIKILATSDMHGYIMPTSYSEKKMDLPFGTAKAATMLKKLRASAKGPVFQIENGDFIQGSPLSYYVRKAETHSVAAITKIINQMNYDVSILGNHEFNYGLDYLKETIASYQQPVLAANILGKDGQPYFGQPYVIIEKQGVKVAILGVTTQYIPHWEQPATVKDLTFKSVVETAAEYVPKLREEADLVVVAYHGGFEKDLETGEPTELLTGENEGYDLLEKVPGIDALVTGHQHREIATKLNGIPVIQPGFRGAFVGEITLEIEPMAKGYHVIGSDAAIHPVGNEQPDTEVLALTTALHDEVEEWLDQPVGNVEGDMTIQNPNAVRLKEHPYIEFINNVQMASSGTDISGTALFNNEGKGFNNQITMRDIITNYIYPNTLAVLRVTGQDLREALEQSATYFVLEKGQPIFNPKYVDPKPQYYNYDMYEGIEYTLDLRQPFGERVTKLNYHGKAVQAEDVLEIVTNQYRAVGGGNYQMFQPEKIIREIQIDMTELIAEYLKKHPIIQASTNDNFKVIW | not soluble |
| MGSDKIHHHHHHMQLKLSSVSKKFDHKIILEDTSFTFEQGKIYGLLGRNGAGKTTLFNCIARNLTLDGGSIQFVKDEIAFDYDNTDIGFTQTYPQLPAFMTAYEFVRFYMDIHKDKLKSPRSPEEWLNLVGIGEEDRHRLLKDFSHGMQNKVQLLLSLIVQPPVLLLDEPLTSFDPVAAHEFKQLIREAKKDSVIIFSTHILQLAQDLCDEIVLLHHQELQAVPSDKLHDPDFEQEVVTLLTAD | not soluble |
| MKYDLKYLSVPLPEEIQRVKEFGDFASADIAIDFWLTKELPQALKERLIIEKDVIKMMRMNEYPHSFAKADQMMRDTFQDYQTEELIRLKETGLVDWVYIDGEPYFQLRFLANLIKTNAAYVARLREAESNQLEILRKKELKENIEQMQKNGGRKVRTTIKATIQVKKEFERPGERVRVHLPLPKACQQQSEIEILATSPEATYIAAEDAPQRTLCFETILKENQTFTVEYCYVNRMVYQQLEENNVDKMQPSFDLEEQLPHIRFTPYLRNLADEIVGDESNPLKKARLIYDFVTTKIHYSFMREYFTISNISEYAATNLKGDCGVQAILFITLCRIAGIPAKWQSGLYVSTHYTGCHDWAQFYIKPYGWLFADLSFGGGAYRDGDRQRWNHYFGNLDVFRMVANSEIQADFQPAKMQLRADPIDNQRGEFEYENEGLPYACLIVSQERLSMEELPFD | not soluble |
| MLSRLSSIFRYFGTTSTIATMSPKKVTIIGSGNWGSAIARIVGSTTKSFPDEFDPTVRMWVFEEIVNGEKLSEVINNRHENIKYLPGKVLPNNVVAVTDLVESCEGSNVLVFVVPHQFVKGICEKLVGKIPADTQAISLIKGVSTEKRGGLKLISEEIKEILKIEVSVLMGANLAPEVANDNFCEATIGCKRKAEDGPLLKKLFHTDNFRINVVEDAHTVELCGALKNVVACAAGFTDGLGYGDNTKAAVIRLGLMETTKFVEHYYPGSNLQTFFESCGIADLITTCYGGRNRKVCEAFVKTGKSMAEVEKELLNGQSAQGPLTAEEVYLMMHKTGLDAKFPLFTAVHKICAGEMKPAELVDCLRNHPEHM | not soluble |
| MSSNNRKKLLLMGRSGSGKSSMRSIIFSNYSAFDTRRLGATIDVEHSHLRFLGNMTLNLWDCGGQDVFMENYFTKQKDHIFQMVQVLIHVFDVESTEVLKDIEIFAKALKQLRKYSPDAKIFVLLHKMDLVQLDKREELFQIMMKNLSETSSEFGFPNLIGFPTSIWDESLYKAWSQIVCSLIPNMSNHQSNLKKFKEIMNALEIILFERTTFLVICSSNGENSNENHDSSDNNNVLLDPKRFEKISNIMKNFKQSCTKLKSGFKTLILNNNIYVSELSSNMVCFIVLKDMNIPQELVLENIKKAKEFFQ | soluble |
| MKKTIQQLVLERILILDGAMGTMIQQYNLREEDFRNERFAHIPGQLKGNNDLLCLTRPDVIRDIHRKYLEAGADIIETNTFSSTTISMADYHVQEYVREMNQAAVKLAREVADEYTALNPDKPRFVAGSVGPTNKTCSMSPDVNNPAYRAVTYDEMADAYQQQMEAMLESGVDALLIETIFDTLNAKAAILAAERAMKATGVKVPVMLSVTVSDTGGRTLSGQTLEAFLASVQHADIFSVGLNCSFGARQLKPFLEQLAARAPYYISAYPNAGLPNSLGKYDQTPADMAHEVKEYVHEGLINIIGGCCGTTDAYIAEYPALIAGAKPHIPVCKPDCMWLSGLELLEVKPEINFVNVGERCNVAGSRKF | not soluble |
| MSLAAVFPLADFRRAGFDRAGESDAWKDSIIKGDCVAALDALPSQSVDAIFADPPYNLQLGGTLHRPDQSLVDAVDDEWDQFASFDAYDAFTRAWLLACRRVLKPNGTIWVIGSYHNIFRVGAMLQNLDFWILNDIVWRKTNPMPNFKGRRFQNAHETMIWASRDPKAKSYTFNYDALKASNDDVQMRSDWLFPICSGHERLKGDDGKKVHPTQKPEALLARIIMASTKPGDIVLDPFFGSGTTGAVAKRLGRHFVGIEREQDYIDAASARITAVEPLGKAELTVMTGKKAEPRVAFNTLVESGLVRPGQVLTDARRRYSAIIRADGTLASGGTAGSIHRLGAKVQGLDACNGWTFWHFEDGDALKPIDDLRTIIRSEMAKAEGHHHHHH | soluble |
| MSLNFTLHTLNGIKLWLVLLLLSGAINVCRADSPRQTINFNRGWKYCQGDFDHAARPGFDDSEWEKIGLPHSFSTPYFMSKDFYVGYGWYRKAFPVKKEILGKKSFLEFDGVFQEAEIFVNGHLAGTHKGGYTGFSIDISAYLKEGKNLVAVRVNNCWRPDLAPRAGEHVFSGGIYRNVRLVIKPPTYIDWYGTWITTPDLAENKGKSGSVHIRTDVCNASGKTDTYRLLTTVVDAQGKEVSSVSTSQVLPDNATYTFEQQTKEIQAPQLWHPNHPALYKVISSLYHGQELIDRYETAFGFRWFEWTADRGFFLNGEHLYFKGANVHQDHAGWGDAVTETGMRRDIRLVKEAGFDLIRGSHYPHSPAFSQACDEIGMLFWAENAFWGIGGHKGDGYWNASAYPVNESDRAEFENSVKAQLKELIRIHRNHPSIIVWSMSNEPFFTAPETINPMRKLLEETVKLSKQLDPTRPAAVGGAQRPLGEKRIDKLGDIAGYNGDGSYIPEFQQPGMPTVVSEYGSTTADRPGEYDPGWGDLAKNNAQNGFPWRSGQAIWCAFDHGSIAGSALGKMGIIDYFRIPKRAWYWYRNAYKGITPPEWPQEGTPARISLVADRTDNIKADGTDDVMLSITILDASGKPVSNSPAVKLDILSGPGEFPTGTSILFEKESDIRILDGKAAIEFRSYYAGETVIRATSPGLEPAEVKIRFTGSTPYTEAFKVKERPYTRFETPTKTDNLQTFGPNNPTFCSSSANGHSSAFAADGDESTYWQASENDPERSWTLDTEKGLSIRHIRIAFPDLTPYQYKVEVSMDREHWSLIPDQTNNKQNENIRMIQVVPGIQGRFVRISFTGEKAAITDVQVIGTVIDEGHHHHHH | soluble |
| MGSDKIHHHHHHMIKCIAVDDEPLALEQLTGYIARVPFLQLIASCQDAFSAMQVLSEEEVDLMFVDIHMPDLNGLDLVRSLVVKPLIVFTTAYPEYAVEGFKVDAVDYLLKPFEFQDLLKAADKARRQFEYHLQDNGGGTETDLLEKDGSLFVKSEYKIIRINVADICYIEGMSEYVRIYTDTADKPVVTLLSMRKLEERLPQEMFMRVHRSYIVNLRKITEVSRLRIIFNKNIYIPVGDNYKERFTEYINKICVSS | not soluble |
| MGSDKIHHHHHHMDNIKQLSRLIIFAEVVQQGSFTGAAKQLGITKSAVSQQIKSLEADMDIRVLNRTTRGVSTTALGQKLLSRCQVLKDQVDLIFKDIVNAEENPRGRFAITLPHSLESNVVMPAIEQLCIEYPGIEPEIIVSDSSLDLVENNLDVAIHAGDLPDSSYRALPIGTITEIFCATPLYLNKNFTPQKLSDLAQLKWISTSWQKQKMSVYNSTNKEKVTIELTQFSKVNTFSTALAMALRHLGLVLLPDNVAKPLIKSGELVHIMEQFTGPVWPVHTLHAYQREKPVHLTRFHQLLCNHFHNL | not soluble |
| MPKAEGRIFDFKGHDAIRTDFLEAIDFDGKDEYIKIETDEFSAVCPFSGLPDIGRVIIEYYPDGGKIVELKSLKYYFVSFRNVGIYQEEATKRIYEDLKNLLKTDRIRVTVIYNIRGGIKTTTQMGSLEGKKSGEVE | not soluble |
| MGELFLVGMGPGDLPGLTQRAREALEGAEVVIGYSTYVKLLEEMGLLAGKEVVRKGMTEELDRAEEALERALSGQRVALVSGGDPGIYGMAAPVLELMEERGLKRVDGGVGLPGRFAGEEGEVFLAVIPGVTAANAVASLLESPLAHDTCLISLSDLLTPWPLIERRLHAAGQGDFVVVLYNPQSKRRDWQLRKSAEILLEYRPKETPAALVKSAYRKRQEVALTTLEGLREAEAGMLTTVVIGNRQSRFYEGTFLTPRGYALKYDLDTKEALPGETPGLSLVSPEGASSGRRDA | soluble |
| MSLYENNVKDTKDFYNDIGHISWSVAPSQHYHVGIFELEKDSMEDAQNRTVEYMARKVAASDLDVLLDIGCGSGLTAVQISKKENCKIVGINISEKQLAIGKKLISKEKINSRVKLMNMDAHQLNFKSGMFDGAYALESIMHMNREKVLSEVHRVLKNGAPFSLCDWYVKKSLTPVEKRFLETITLGKYITKEQYFSLYQTQNFMDIEIEEWSNKILPTYKYWTTITDEMKEKLPDHLLYVIEENSKVLSDIAIEKLGYLQVNGIKREGHHHHHH | soluble |
| SLSEKVIDMYKSENCGCCSLWGKAMEKDGFEVRTHIMNDQALSALKEKHAIPAGLRSCHTAVAGNLIIEGHVPATTIHKAMQSGSGIYGLATPGMPAGSPGMEMGARKEAYDVIAFSPDGSKKVFQRIE | soluble |
